Experimental data published in patent publication US20050008628A1.

Biological target: mutant voltage gated potassium channel (Kv1.3)
Experiment: cell-based or functional assay

How did the local ventricular effective refractory period (ERP) at graft site after MTx, one rat (170 ms before MTx) turn out when “Margatoxin (from UniProt P40755 1-39) (peptide)” was run?
The local ventricular effective refractory period (ERP) at graft site after MTx, one rat (170 ms before MTx) was 100 ms.
